# “Also recorded” adds a separate entry of the source.
# B1: sclerostin: partially purified baculovirus-expressed human sclerostin protein, SOST gene product (SEQ ID NO:3); also made with a FLAG tag (protein, listed as Homo sapiens)
# chain: MQLPLALCLVCLLVHTAFRVVEGQGWQAFKNDATEIIPELGEYPEPPPELENNKTMNRAENGGRPPHHPFETKDVSEYSCRELHFTRYVTDGPCRSAKPVTELVCSGQCGPARLLPNAIGRGKWWRPSGPDFRCIPDRYRAQRVQLLCPGGEAPRARKVRLVASCKCKRLTRFHNQSELKDFGTEAARPQKGRKPRPRARSAKANQAELENAY
# modifications: optional FLAG tag
# Key:
# [1] = system: mineralization (calcium deposition) in hMSC cells; assay: mineralization (calcium deposition) in hMSC cells; assay type: cell-based, human; settings: for mineralization (calcium deposition), increasing concentrations: hMSC cells, Osteoblast-Inducing media, protein added at 8 days, another 13 days
# Method: FIG. 12B illustrates that human sclerostin decreases mineralization (calcium deposition) in hMSC cells in a dose-dependent manner. hMSC cells were plated in Osteoblast-Inducing media. Partially-purified sclerostin protein or proteins purified from Sf9 conditioned media (control) were added the next day. Cultures were maintained for 8 days, treated with sclerostin or control proteins and maintained for another 13 days before testing for mineralization. As illustrated, increasing concentrations of sclerostin give rise to diminished mineralization.
# (§1) hMSC cells were plated in 96-well tissue culture dishes at a density of 10,000 cells/cm^2 in Osteoblast-Inducing medium. Partially purified preparations of baculovirus-expressed sclerostin protein were prepared in sterile PBS using NAP-5 columns prior to use. Human sclerostin protein (0 to 30 μg/ml) or an equal volume of Sf9 conditioned media (Control) was added to cultures of hMSC cells at various times after plating (1 day, 8 days, 15 days, or 21 days). The effects of sclerostin on osteoblastic differentiation were assessed by measuring alkaline phosphatase activity (ALP, determined in cell layers using DEAA buffer (Pierce) containing 0.5% NP-40 and 10 mM p-nitrophenylphosphate), synthesis of collagen type I (Prolagen C ELISA), and calcium deposition for mineralization (colorimetric assay of acid lysates of cell layers, Sigma).
# apoptosis genes = assay: Apoptosis Gene Array of hMSC treated with sclerostin; assay type: cell-based, human
# Method: In another study, hMSC were treated with vehicle or sclerostin for 6 hrs or 48 hrs. Cells were harvested, RNA prepared and used for the analysis of a commercially available Apoptosis Gene Array (SuperArray, Bethesda, Md.). To further investigate the effects of sclerostin on the apoptosis of hMSC, RNA was harvested from vehicle and sclerostin-treated cells and used the RNA to probe a cDNA expression array containing apoptosis genes. The results for vehicle and sclerostin-treated samples were compared and data (corrected for background) were expressed as a ratio of sclerostin to vehicle.
# [2] = system: alkaline phosphatase activity in primary human osteoblasts; assay: histochemical staining for alkaline phosphatase in primary human osteoblasts; assay type: cell-based; settings: primary human osteoblasts in Inducing media, Sclerostin 20 μg/ml, 7 days
# Method: Primary human osteoblasts were grown in regular growth media or in Inducing media (to promote differentiation) and then treated with Sclerostin (20 μg/ml) or Control (protein purified from Sf9 conditioned media) for 7 days prior to histochemical staining for alkaline phosphatase activity. Osteoblasts grown in regular growth media expressed low, basal levels of ALP (“No Treatment,” far right panel).
# [3] = system: alkaline phosphatase (ALP) activity in hMSC cells; assay: alkaline phosphatase activity in differentiating hMSC cells; assay type: cell-based, human; settings: for basal alkaline phosphatase activity, increasing concentrations (dose-dependent) / ALP activity: hMSC cells, Osteoblast-Inducing media; for ALP activity: 7 days
# Method: as §1
# hMSC cells [4] = assay: apoptosis of hMSC cells by TUNEL staining; assay type: cell-based, human; settings: Sclerostin 20 μg/ml, 24 hrs
# Method: (§2) Human mesenchymal (hMSC) cells were plated in Osteoblast-inducing media (Biowhittaker's MSCGM medium supplemented with 100 nM dexamethasone, 50 μg/ml ascorbic acid, and 10 mM β-glycerophosphate) at a density of 10,000 cells/cm^2 in 96-well dishes.
# For apoptosis determination by TUNEL staining, cells were treated for 24 hrs with a partially purified preparation of bacculovirus-expressed human sclerostin (20 μg/ml) or an equal volume of a protein preparation purified from Sf9 conditioned media (control). Cells were fixed with paraformaldehyde and processed using Roche's In Situ Cell Death Detection kit.
# [5] = system: type I collagen synthesis in hMSC cells; assay: synthesis of collagen type I in hMSC cells (Prolagen C ELISA); assay type: cell-based, human
# Method: FIG. 13 illustrates that partially purified preparations of human sclerostin reduce the synthesis of type I collagen by about 50% in cells treated with 10 μg/ml of sclerostin (p<0.001 to control). hMSC cells were cultured in Osteoblast-Inducing media and treated with partially-purified sclerostin protein or proteins purified from Sf9 conditioned media (Control) for 21 days. Sclerostin or Control at the indicated concentrations was added 8 days after plating.
# as §1
# hMSC cells [6] = assay: CellTiterGlo viability assay of hMSC cells; assay type: cell-based, human; settings: Osteoblast-Inducing media, increasing amounts of sclerostin, 1 week, versus control
# Method: as §2
# For cell viability assays, cells were treated with a partially purified preparation of bacculovirus-expressed human sclerostin (0 to 20 μg/ml) or an equal volume of a protein preparation purified from Sf9 conditioned media (control) for 1 week. Sclerostin and control were refreshed upon media change. Cells were then lysed and processed using Promega's CellTiterGlo Luminescence Viability Assay.
# [7] = system: alkaline phosphatase (ALP) activity in hMSC cells; assay: alkaline phosphatase activity in differentiating hMSC cells; assay type: cell-based, human; settings: BMP-6 500 ng/ml plus increasing concentrations of sclerostin-Flag protein
# [8] = hMSC cells treated with about 10 to 15 μg/ml of the protein, p<0.001 to control
# [9] = hMSC, 6 hrs, Anti-apoptotic gene
# [10] = hMSC, 48 hrs, Anti-apoptotic gene
# [11] = hMSC, 48 hrs, Proapoptotic gene
molecule,measurement,setting,value
B1,decrease of mineral deposition,[1]; [8],about 50%
same,"mineralization (calcium deposition), increasing concentrations",[1]; listed as Sclerostin,decreased
same,"mineralization (calcium deposition), increasing concentrations",[1]; listed as human sclerostin,decreases
same,increase in the expression of apoptosis-associated genes and genes involved in cell survival,apoptosis genes; hMSC treated for 6 hrs with sclerostin,2 to 4 fold
same,"Ratio of sclerostin to vehicle, Bruce",apoptosis genes; [9],1.45 ± 0.75
same,"Ratio of sclerostin to vehicle, Survivin, IAP2",apoptosis genes; [9],1.32 ± 0.48
same,"Ratio of sclerostin to vehicle, XIAP",apoptosis genes; [9],2.01 ± 0.64
same,"Ratio of sclerostin to vehicle, BAX","apoptosis genes; hMSC, 6 hrs, Proapoptotic gene",1.53 ± 0.2
same,"Ratio of sclerostin to vehicle, Bcl10","apoptosis genes; hMSC, 6 hrs, Proapoptotic gene",4.09 ± 2.13
same,"Ratio of sclerostin to vehicle, Caspase 3","apoptosis genes; hMSC, 6 hrs, Proapoptotic gene",2.46 ± 0.69
same,"Ratio of sclerostin to vehicle, Caspase 4","apoptosis genes; hMSC, 6 hrs, Proapoptotic gene",1.83 ± 1.12
same,"Ratio of sclerostin to vehicle, Caspase 7","apoptosis genes; hMSC, 6 hrs, Proapoptotic gene",1.76 ± 0.18
same,"Ratio of sclerostin to vehicle, Hrk","apoptosis genes; hMSC, 6 hrs, Proapoptotic gene",1.59 ± 0.39
same,"Ratio of sclerostin to vehicle, Myd88","apoptosis genes; hMSC, 6 hrs, Proapoptotic gene",1.4 ± 0.31
same,"Ratio of sclerostin to vehicle, Casper",apoptosis genes; [10],2.68 ± 0.28
same,"Ratio of sclerostin to vehicle, I-TRAF",apoptosis genes; [10],2.05 ± 0.54
same,"Ratio of sclerostin to vehicle, Mdm2",apoptosis genes; [10],1.66 ± 0.34
same,"Ratio of sclerostin to vehicle, Bak1",apoptosis genes; [11],2.36 ± 0.74
same,"Ratio of sclerostin to vehicle, Bax",apoptosis genes; [11],1.64 ± 0.3
same,"Ratio of sclerostin to vehicle, Bcl10",apoptosis genes; [11],1.84 ± 0.76
same,"Ratio of sclerostin to vehicle, Blk",apoptosis genes; [11],1.83 ± 0.12
same,"Ratio of sclerostin to vehicle, Myd88",apoptosis genes; [11],2.64 ± 1.3
same,amount of ALP expressed (histochemical stain),[2],marked decrease
same,decrease of alkaline phosphatase activity,[3]; [8],about 50%
same,"basal alkaline phosphatase activity, increasing concentrations (dose-dependent)",[3],significantly reduced; also recorded: decreased
same,ALP activity,[3]; protein at 1 μg/ml,decreased
same,ALP activity,[3]; protein at 5 μg/ml,decreased
same,"basal alkaline phosphatase activity, increasing concentrations (dose-dependent)",[3]; listed as Sclerostin,decreased
same,"basal alkaline phosphatase activity, increasing concentrations (dose-dependent)",[3]; listed as human sclerostin,decreases
same,Tunel staining for apoptotic nuclei,hMSC cells [4],Increased staining for apoptotic nuclei
same,Tunel staining for apoptotic nuclei,hMSC cells [4]; listed as human sclerostin,undergo apoptosis
same,reduction of synthesis of type I collagen,"[5]; hMSC cells, 10 μg/ml of sclerostin, 21 days, p<0.001 to control",about 50%
same,"synthesis of collagen type I, dose dependence",[5]; hMSC cultures,decreased in a dose-dependent manner
same,viability of hMSC cells,hMSC cells [6],significantly reduced; also recorded: decreases the viability
same,BMP-6 induced alkaline phosphatase activity,[7],reduced; also recorded: decreased

# From patent US7655420B2, “Methods to increase or decrease bone density” (Celltech R & D, Inc., priority 2002, dated 2010)
